# Patent publication US20130040894A1, “INHIBITION OR ACTIVATION OF SERINE/THREONINE ULK3 KINASE ACTIVITY” (TALLINN UNIVERSITY OF TECHNOLOGY, priority 2009, published 2013)
# T1: FLAG-tagged GLI2, P10070
# T1 chain: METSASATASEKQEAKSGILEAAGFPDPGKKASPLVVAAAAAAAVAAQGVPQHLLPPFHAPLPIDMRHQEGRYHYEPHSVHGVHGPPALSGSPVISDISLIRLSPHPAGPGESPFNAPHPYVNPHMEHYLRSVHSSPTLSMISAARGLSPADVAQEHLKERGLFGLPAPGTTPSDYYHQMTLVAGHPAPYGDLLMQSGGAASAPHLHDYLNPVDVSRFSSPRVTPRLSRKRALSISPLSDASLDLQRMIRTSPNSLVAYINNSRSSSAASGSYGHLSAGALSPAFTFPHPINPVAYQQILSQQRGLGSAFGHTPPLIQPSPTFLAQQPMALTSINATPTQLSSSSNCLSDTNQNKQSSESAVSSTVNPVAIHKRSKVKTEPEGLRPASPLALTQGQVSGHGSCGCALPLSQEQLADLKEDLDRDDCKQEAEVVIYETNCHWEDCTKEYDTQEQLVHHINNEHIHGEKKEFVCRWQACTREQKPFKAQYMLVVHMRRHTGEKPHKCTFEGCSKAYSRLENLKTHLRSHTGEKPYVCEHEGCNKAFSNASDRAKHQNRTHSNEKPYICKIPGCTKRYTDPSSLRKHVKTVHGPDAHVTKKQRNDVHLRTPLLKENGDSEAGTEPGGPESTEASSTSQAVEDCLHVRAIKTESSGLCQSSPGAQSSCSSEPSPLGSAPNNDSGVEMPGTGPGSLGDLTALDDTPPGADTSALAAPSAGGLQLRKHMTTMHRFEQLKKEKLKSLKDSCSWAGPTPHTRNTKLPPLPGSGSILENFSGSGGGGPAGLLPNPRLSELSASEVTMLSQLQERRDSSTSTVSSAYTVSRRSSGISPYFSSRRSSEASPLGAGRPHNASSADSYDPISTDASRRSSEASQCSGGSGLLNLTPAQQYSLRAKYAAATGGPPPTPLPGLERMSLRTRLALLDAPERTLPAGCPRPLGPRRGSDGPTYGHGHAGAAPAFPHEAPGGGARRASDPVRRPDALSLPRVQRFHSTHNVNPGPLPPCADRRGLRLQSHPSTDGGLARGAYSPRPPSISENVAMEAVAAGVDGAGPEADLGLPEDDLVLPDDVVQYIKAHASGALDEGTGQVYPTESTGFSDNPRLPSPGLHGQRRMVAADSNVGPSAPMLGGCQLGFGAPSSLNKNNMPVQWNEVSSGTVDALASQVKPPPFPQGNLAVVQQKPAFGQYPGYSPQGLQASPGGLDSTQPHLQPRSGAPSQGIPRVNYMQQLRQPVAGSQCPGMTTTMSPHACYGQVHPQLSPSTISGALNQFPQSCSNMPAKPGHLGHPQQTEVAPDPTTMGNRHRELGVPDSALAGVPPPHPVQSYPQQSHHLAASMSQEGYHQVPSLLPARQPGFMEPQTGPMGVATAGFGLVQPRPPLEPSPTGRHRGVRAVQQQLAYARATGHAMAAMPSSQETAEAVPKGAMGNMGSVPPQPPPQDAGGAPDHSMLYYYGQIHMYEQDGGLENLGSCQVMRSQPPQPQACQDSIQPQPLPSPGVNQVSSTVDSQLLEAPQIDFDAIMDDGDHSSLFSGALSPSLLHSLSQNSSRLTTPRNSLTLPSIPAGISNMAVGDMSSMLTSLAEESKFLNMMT
# B1: FLAG-tagged ULK3(K44R) (protein)
# chain: MAGPGWGPPRLDGFILTERLGSGTYATVYKAYAKKDTREVVAIRCVAKKSLNKASVENLLTEIEILKGIRHPHIVQLKDFQWDSDNIYLIMEFCAGGDLSRFIHTRRILPEKVARVFMQQLASALQFLHERNISHLDLKPQNILLSSLEKPHLKLADFGFAQHMSPWDEKHVLRGSPLYMAPEMVCQRQYDARVDLWSMGVILYEALFGQPPFASRSFSELEEKIRSNRVIELPLRPLLSRDCRDLLQRLLERDPSRRISFQDFFAHPWVDLEHMPSGESLGRATALVVQAVKKDQEGDSAAALSLYCKALDFFVPALHYEVDAQRKEAIKAKVGQYVSRAEELKAIVSSSNQALLRQGTSARDLLREMARDKPRLLAALEVASAAMAKEEAAGGEQDALDLYQHSLGELLLLLAAEPPGRRRELLHTEVQNLMARAEYLKEQVKMRESRWEADTLDKEGLSESVRSSCTLQ
# Columns and labels:
# [1] = test system: GLI2; experiment: In vitro kinase assay, phosphorylation of GLI2; format: biochemical; conditions: FLAG-tagged GLI2 immunoprecipitated from HEK293 cells
# Description: (§1) HEK293 cells were transfected with 13.5 μg of FLAG-tagged constructs expressed GLI1, GLI2, GLI3, ULK3, ULK3(K44R), ULK3(K139R) or FLAG-CMV-4 empty vector on 10 cm plates. The cells were lysed with 0.5 ml of Lysis Buffer (50 mM Tris HCl, pH 7.4, 150 mM NaCl, 1 mM EDTA, 1% Triton X-100) containing protease inhibitor cocktail (PIC) (Roche Applied Science). The lysates were centrifuged for 15 min at 4° C. and 15000 g, and the supernatants were used for immunoprecipitation (IP). IP was performed using anti-FLAG-M2 affinity gel (Sigma-Aldrich) in batch format according to the manufacture's instructions. Immune complexes were washed three times with 500 μl of Kinase Buffer (KB) (50 mM HEPES, pH 7.4, 20 mM MgCl2, 25 μM ATP) and resuspended in 12.5 μl of KB. One fifth of the immuno-complexes was subjected to WB and the rest was used for the kinase assay.
# Kinase reactions were carried out in KB in a total volume of 20 μl of in the presence of 1 μCi of [γ-^32P]ATP per reaction. We used 1 μl of the immunoprecipitated ULK3, ULK3(K44R) or ULK3(K139R) mixed with 5 μl of the GLI-M2 immunocomplexes or 5 μl of bacterially expressed and purified His-GLI1 fragments. Kinase reactions were held at 30° C. for 30 min and terminated by adding of 5 μl of 4× Laemmli Sample Buffer. Proteins were resolved by SDS-PAGE. […]
# [2] = target: T1, FLAG-tagged GLI2, P10070
# [3] = test system: ULK3; experiment: In vitro kinase assay, autophosphorylation; format: biochemical, human; conditions: FLAG-tagged protein immunopurified from HEK293 cells, γ-P32-ATP
# Description: as §1
# Kinase reactions were carried out in KB in a total volume of 20 μl of in the presence of 1 μCi of [γ-^32P]ATP per reaction. We used 1 μl of the immunoprecipitated ULK3, ULK3(K44R) or ULK3(K139R) mixed with 5 μl of the GLI-M2 immunocomplexes or 5 μl of bacterially expressed and purified His-GLI1 fragments. Kinase reactions were held at 30° C. for 30 min and terminated by adding of 5 μl of 4× Laemmli Sample Buffer. Proteins were resolved by SDS-PAGE. The gel was dried at 80° C. for 2 h, and autoradiography was performed using Bio-Rad Personal Molecular Imager FX.
# To test if ULK3 has an autophosphorylation activity, we expressed FLAG-tagged wild-type ULK3 and mutants ULK3(K44R) and ULK3(K139R) in HEK293 cells, immunopurified and subjected to in vitro kinase assay in the presence of γ-P^32-ATP.
# [4] = test system: GLI-dependent firefly luciferase activity in Shh-LIGHT2 cells; experiment: GLI-dependent luciferase assay in Shh-L2 cells; format: cell-based, mouse
# Description: Cells were transfected by the expression constructs or respective empty vectors using Polyethylenimine transfection agent (PEI) (Inbio) and as described in [28]. We used 0.25 μg of cDNA per 1 cm^2 of plate surface area for transfections. After 3 h of transfection HEK293, NIH3T3 and Cos1 cells were propagated in the normal growth medium for 48 h. Prior the further analysis the cells were washed twice with PBS. Post-transfectional Shh-L2 cells were grown in the normal growth medium for 24 h and for additional 24 h in the Light medium containing 0.25% FBS, washed once with PBS, lysed in Passive Lysis Buffer (Promega, Madison Wis., USA) (70 ul per well of 24-well plate format) and subjected to luciferase assay.
# Luciferase assay was performed as previously described. Briefly, firefly luciferase activity of 12 μl of the Shh-L2 cells lysate was measured using Luciferase Assay Kit (Promega) and galactosidase activity was quantified using Galacto-LightPlus kit (Tropix, Bedford Mass., USA) according to the manufacturer's instructions. Chemiluminicence was measured using Ascent FL Fluoroscan (Thermo Electron Corporation, Waltham Mass., USA) according to the manufacturer's instructions.
# We cotransfected the constructs together with GLI-expressing plasmids (or respective empty vector) into Shh-L2 cells and assessed their effect on GLI-dependent firefly luciferase activity. The obtained data was normalized with β-galactosidase values. […] It was able to stimulate the luciferase activity 3.8 times and enhanced the transcriptional activity of over expressed GLI1 and GLI2 approximately 2 and 3.2 times, respectively. The potency of STK36 in the assay was much lower.
# In order to examine if the kinase activity of ULK3 is required for the luciferase reporter activation we tested the supposed kinase-deficient variants of ULK3, ULK3(K44R) and ULK3(K139R) in the same assay. […] We also tested the effect of ULK3 and the mutants on the luciferase reporter when the SHH pathway was activated by cotransfection with pShhN (plasmid expressing biologically active part of SHH).
molecule,measurement,setting,value
B1,phosphorylation of GLI2,[1],slightly phosphorylate
same,"in vitro kinase assay, phosphorylation signal (32P autoradiography)",[2],The mutant ULK3(K44R) could slightly phosphorylate GLI2 (data not shown)
same,autophosphorylation activity,[3],reduced efficiency in autophosphorylation
same,enhancement of transcriptional activity of overexpressed GLI1,"[4]; cotransfected with GLI1, Shh-L2 cells",neither of the mutants had an effect
same,enhancement of transcriptional activity of overexpressed GLI2,"[4]; cotransfected with GLI2, Shh-L2 cells",some residual activity
same,induction of luciferase activity with activated SHH pathway,"[4]; cotransfection with pShhN, Shh-L2 cells",1.7 times
